Experimental data as given in paper PMC2192215 (The Journal of Experimental Medicine, 1995).
Entries after “also recorded” stand apart in the source; their conditions may differ. One block for each molecule: values may come before it. Ends that are not written are not given here.

Experiments:
Seu.5 T cells = experiment: T cell hybridoma assay: IL-2 production by Seu.5 T cells; type: cell-based, A/J mice; settings: APC pulsed with the peptide, tissue culture assay; data not shown
I-Au molecule = target: T1, I-Au molecule (Mus musculus, UniProt P06344+P14438); settings: cited from earlier work
T1 sequence (P06344 whole entry, looked up): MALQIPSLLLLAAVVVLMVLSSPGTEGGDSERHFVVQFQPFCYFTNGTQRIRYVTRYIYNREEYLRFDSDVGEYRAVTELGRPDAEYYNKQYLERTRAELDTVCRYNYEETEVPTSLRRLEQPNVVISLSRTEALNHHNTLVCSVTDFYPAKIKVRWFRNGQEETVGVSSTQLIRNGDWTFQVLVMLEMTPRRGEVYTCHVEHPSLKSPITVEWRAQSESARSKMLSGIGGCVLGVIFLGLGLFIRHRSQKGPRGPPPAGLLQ
T1 sequence (P14438 whole entry, looked up): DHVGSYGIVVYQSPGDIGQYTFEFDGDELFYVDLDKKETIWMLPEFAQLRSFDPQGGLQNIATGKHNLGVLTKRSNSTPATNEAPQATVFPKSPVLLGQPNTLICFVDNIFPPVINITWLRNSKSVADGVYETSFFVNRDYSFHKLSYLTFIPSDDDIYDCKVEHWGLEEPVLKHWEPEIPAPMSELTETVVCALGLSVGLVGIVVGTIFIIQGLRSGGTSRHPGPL

[1] = cited from earlier work
A/J mice = experiment: Induction and quantitation of autoimmune myocarditis in A/J mice; type: in vivo; settings: experiment 1; 100 μg myosin or 100 nmol peptide; H&E cross-sections, day 21
[2] = target: purified I-Ak molecules (mouse); experiment: radioligand binding
[3] = target: I-Ak molecules on the surface of I-Ak-expressing M12.C3.F6 B-lymphoma cells (mouse); experiment: SDS/PAGE stability assay

relative IC50 (relative to unlabeled HEL(YE52-61)) [2]: 1
B1: HEL(YE52-61), unlabeled (peptide)
peptide: YEDYGILQINSR

relative IC50 (relative to unlabeled HEL(YE52-61)) [2]: 33.3
B3: bovine RNase(43-56) (peptide)
peptide: VNTFVHESLADVQA

percent SDS-stable I-Ak [3]: 50%
B4: myhc alpha(334-352) peptide, radiolabeled (peptide)
peptide: DSAFDVLSFTAEEKAGVYK
modifications: not fully specified; also: radiolabel on Tyr, isotope not given here

maximum binding in the absence of competitors [2]: 148000 cpm
B5: 125I-labeled HEL(YE52-61) (peptide)
peptide: YEDYGILQINSR
modifications: also: 125I-labeled, residue not given here

percent SDS-stable I-Ak [3]: 96%
B6: 125I-labeled HEL(48-61) (peptide)
peptide: DGSTDYGILQINSR
modifications: also: 125I-labeled, residue not given here

The remaining lines, values behind:

Molecule: SAFDVLSFTAEEKA [myhc0~(335-348)]
stimulation of Seu.5 T cells by peptide-pulsed APC (Seu.5 T cells): strongly stimulated

Molecule: MBP(Ac1-11): myelin basic protein epitope (Ac-MGNHSGKRELS; UniProt P04370 1-11, looked up, fragment)
binding to I-Au (I-Au molecule): bound very weakly
induction of experimental autoimmune encephalomyelitis [1]: could strongly induce experimental autoimmune

Molecule: DSAFDVLSFTAEEKAGVYK [myhca(334-352)]
severity of myocarditis in photomicrographs (Fig. 4 B) (A/J mice): Moderate; also recorded: Severe

B2: myhc alpha(334-352) peptide, unlabeled (peptide)
peptide: DSAFDVLSFTAEEKAGVYK
relative IC50 (relative to unlabeled HEL(YE52-61)) [2]: 15.6
